In patent US20200095333A1 (published 2020):

Columns and labels:
[1] = target: T1, sCD32A (soluble CD32A, negative control receptor) (UniProt P12318 34-217); assay: SPR (BIAcore), receptor immobilised
T1 construct: extracellular domain
T1 sequence: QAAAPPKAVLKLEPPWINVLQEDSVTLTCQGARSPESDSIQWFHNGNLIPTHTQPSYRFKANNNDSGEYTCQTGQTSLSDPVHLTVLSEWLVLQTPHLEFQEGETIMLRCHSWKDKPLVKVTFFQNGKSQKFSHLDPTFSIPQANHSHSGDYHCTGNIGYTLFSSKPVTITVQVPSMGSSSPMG

[2] = target: T2, sCD16A (soluble CD16A, FcgammaRIIIA) (human, UniProt P08637 17-208); assay: SPR (BIAcore), receptor immobilised, diabody 6.25-200 nM
T2 construct: extracellular domain; given only as soluble; used immobilised (SPR), coated, or biotin/HRP-labelled as probe (ELISA); also called CD16 antigen; sCD16A-Biotin

[3] = target: T3, sCD32B (soluble CD32B, FcgammaRIIB) (human, UniProt P31994 43-217); assay: as above
T3 construct: extracellular domain; also called soluble CD32B ectodomain
T3 sequence: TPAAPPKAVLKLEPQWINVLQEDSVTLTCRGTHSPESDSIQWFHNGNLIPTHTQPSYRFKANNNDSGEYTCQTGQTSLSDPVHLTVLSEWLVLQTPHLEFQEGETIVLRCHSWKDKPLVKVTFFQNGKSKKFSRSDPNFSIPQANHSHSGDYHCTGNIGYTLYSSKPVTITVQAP

T2 sequence (P08637 17-208): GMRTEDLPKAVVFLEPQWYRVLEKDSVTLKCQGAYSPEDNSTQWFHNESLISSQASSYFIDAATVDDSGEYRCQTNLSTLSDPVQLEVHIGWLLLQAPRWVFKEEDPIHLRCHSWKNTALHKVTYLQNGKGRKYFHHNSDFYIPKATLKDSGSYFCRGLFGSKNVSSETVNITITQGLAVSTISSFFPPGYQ

B1: h2B6-h3G8 CBD (covalent bispecific diabody, constructs 1 and 2) (bispecific antibody)
chain 1: EIVLTQSPDFQSVTPKEKVTFTCRTSQSIGTNIHWYQQKPDQSPKLLIKEVSESISGVPSRFSGSGSGTDFTLTINSLEAEDAATYYCQQSNTWPFTFGGGTKVEIKGGGSGGGGQVTLRESGPALVKPTQTLTLTCTFSGFSLSTSGMGVGWIRQPPGKALEWLAHIWWDDDKRYNPALKSRLTISKDTSKNQVVLTMTNMDPVDTATYYCAQINPAWFAYWGQGTLVTVSSLGGC
chain 2: DIVMTQSPDSLAVSLGERATINCKASQSVDFDGDSFMNWYQQKPGQPPKLLIYTTSNLESGVPDRFSGSGSGTDFTLTISSLQAEDVAVYYCQQSNEDPYTFGQGTKLEIKGGGSGGGGQVQLVQSGAEVKKPGASVKVSCKASGYTFTNYWIHWVRQAPGQGLEWIGVIDPSDTYPNYNKKFKGRVTMTVVVSTSTAYMELRSLRSDDTAVYYCARNGDSDYYSGMDYWGQGTTVTVSSLGGC
notes: also called h2B6-h3G8 diabody; h2B6-h3G8 covalent heterodimer
B1 was tested, and the binding result [1] was “no binding (tested: 100 nM)”, the Kd [2] was 22.7 nM and the Kd [3] was 15 nM.
